Values of other authors, collected in paper PMC2910649.

Target: VEGFR2 (Homo sapiens) (UniProt P35968)
UniProt P35968, sequence (P35968 20-1356): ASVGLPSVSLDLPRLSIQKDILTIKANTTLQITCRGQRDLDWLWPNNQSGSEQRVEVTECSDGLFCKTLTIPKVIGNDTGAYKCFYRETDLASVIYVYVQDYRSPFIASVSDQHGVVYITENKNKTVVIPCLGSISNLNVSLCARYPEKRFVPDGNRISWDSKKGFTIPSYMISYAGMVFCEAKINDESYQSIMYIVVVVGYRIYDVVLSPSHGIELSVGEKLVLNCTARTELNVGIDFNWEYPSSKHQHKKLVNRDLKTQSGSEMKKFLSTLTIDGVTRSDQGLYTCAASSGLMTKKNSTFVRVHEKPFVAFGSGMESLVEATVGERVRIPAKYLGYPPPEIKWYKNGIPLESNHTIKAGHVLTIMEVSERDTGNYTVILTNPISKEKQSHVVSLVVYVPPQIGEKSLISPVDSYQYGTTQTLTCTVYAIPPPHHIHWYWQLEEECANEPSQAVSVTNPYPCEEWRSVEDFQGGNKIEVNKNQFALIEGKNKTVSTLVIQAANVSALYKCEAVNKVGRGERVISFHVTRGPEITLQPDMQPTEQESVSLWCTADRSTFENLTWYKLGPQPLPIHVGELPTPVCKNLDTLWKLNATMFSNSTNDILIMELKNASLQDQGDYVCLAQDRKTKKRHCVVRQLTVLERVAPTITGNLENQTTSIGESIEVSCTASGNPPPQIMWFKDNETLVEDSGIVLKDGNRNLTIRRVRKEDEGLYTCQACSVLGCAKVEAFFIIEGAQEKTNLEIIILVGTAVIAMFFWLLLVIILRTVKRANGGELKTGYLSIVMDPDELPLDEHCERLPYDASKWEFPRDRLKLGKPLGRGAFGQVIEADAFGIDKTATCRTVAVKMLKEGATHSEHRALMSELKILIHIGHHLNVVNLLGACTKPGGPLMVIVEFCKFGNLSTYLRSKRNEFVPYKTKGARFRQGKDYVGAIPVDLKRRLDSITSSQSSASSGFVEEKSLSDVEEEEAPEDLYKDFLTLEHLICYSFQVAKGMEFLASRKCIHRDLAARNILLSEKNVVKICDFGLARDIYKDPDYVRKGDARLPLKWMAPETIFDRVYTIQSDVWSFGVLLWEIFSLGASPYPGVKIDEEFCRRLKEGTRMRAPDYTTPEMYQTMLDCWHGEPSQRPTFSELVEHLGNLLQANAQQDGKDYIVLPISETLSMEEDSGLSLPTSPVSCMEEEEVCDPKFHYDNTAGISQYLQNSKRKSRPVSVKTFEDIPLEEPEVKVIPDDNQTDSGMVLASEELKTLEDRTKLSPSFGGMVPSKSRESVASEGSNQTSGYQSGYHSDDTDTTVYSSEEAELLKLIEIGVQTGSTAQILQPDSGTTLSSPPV

For VEGF-A165 (from UniProt P15692), the Kd is listed as 0.21 nM.
